B1: ZC3H15 (parent)
chain: ENLFTGEDLDELEEELNTLDLEE

Variants of: B1
Assay: protein stability index of a GFP-peptide fusion (GPS, HEK-293T) (PSI 1-6); higher = more stable
Conditions: c terminus: native
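Note: lentivirally expressed fusions sorted by FACS into six bins by GFP to DsRed ratio, PSI derived from sequencing read proportions per bin multiplied by bin number.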

Variant | protein stability index
N17C | 3.64
N17F | 2.5
N17H | 3.71
N17M | 3.5
N17Q | 4.06
N17I | 3.3
N17D | 4.65
N17E | 4.89
N17K | 5.18
N17A | 4.7
L9C | 4.43
L9K | 2.38
L9M | 4.69
L9W | 3.09
L9S | 4.49
L9A | 4.25
L9P | 4.55
L9E | 4.54
L9V | 4.68
L9G | 4.03
L9T | 4
L9H | 3.51
L9R | 3.18
L9N | 4.1

Variant | protein stability index
L9Q | 3.82
L9Y | 2.68
L9I | 5
L9F | 3.48
L9D | 3.87
L16N | 4.12
L16M | 4.78
L16V | 4.22
L16F | 4.87
L16R | 3.77
L16T | 4.77
L16K | 3.62
L16P | 3.32
L16G | 4.11
L16A | 3.48
L16H | 4.2
L16S | 3.82
L16Q | 2.69
L16W | 2.9
L16E | 3.7
E11K | 4.83
E11R | 4.98
E11C | 4.52
E11D | 4.58

Variant | protein stability index
E11H | 4.58
E11G | 5.13
E11Q | 4.89
E11S | 4.93
E11A | 3.93
E11V | 4.1
E11I | 4.71
E11M | 4.25
E11P | 4.06
E11L | 4.3
E11W | 4.67
E11T | 4.9
E11F | 3.64
E11N | 4.58
E13T | 4.6
E13R | 4.37
E13Q | 5.06
E13A | 5.59
E13F | 3.81
E13H | 3.82
E13D | 4.46
E13N | 5.1
E13C | 5.19
E13G | 3.77

Variant | protein stability index
E13L | 4.44
E13K | 4
E13Y | 4.11
E13W | 3.48
E13S | 5.36
E13I | 4.51
E13P | 3.56
E13V | 4.83
E14G | 3.47
E14Y | 4.33
E14F | 2.95
E14P | 3.42
E14S | 4.85
E14N | 4.37
E14W | 3.7
E14A | 5.01
E14H | 5.05
E14V | 3.65
E14T | 4.12
E14M | 3.55
E14K | 5.14
E14C | 3.99
E14Q | 4.56
E14I | 3.3

Variant | protein stability index
E14D | 4.74
D10I | 4.73
D10Q | 4.89
D10F | 4.12
D10P | 5
D10R | 5.07
D10K | 4.35
D10E | 5.05
D10W | 4.02
D10H | 4.89
D10A | 5.27
D10Y | 3.33
D10N | 5.33
D10M | 3.89
D10L | 4.28
D10V | 5.1
D10G | 4.73
D8W | 4.09
D8N | 3.93
D8E | 4.58
D8I | 4.13
D8H | 4.66
D8K | 4.39
D8V | 4.83

Variant | protein stability index
D8R | 5.05
D8P | 4.24
D8T | 4.25
D8L | 4.72
D8G | 5.03
D8Q | 4.58
D8C | 4.99
D8S | 5.14
E15Y | 3.4
E15H | 4.29
E15T | 5.01
E15L | 3.29
E15F | 3.37
E15A | 4.94
E15V | 3.09
E15Q | 4.93
E15P | 3.14
E15M | 3.88
E15D | 3.74
E15G | 5.2
E15W | 4.08
E15S | 5.18
E15K | 5.54
E15R | 5.29

Variant | protein stability index
E15N | 4.61
E15I | 4.04
E7Y | 4.23
E7S | 5
E7R | 4.69
E7Q | 4.11
E7V | 3.99
E7W | 4.54
L12Q | 3.69
L12Y | 1.93
L12M | 3.43
L12A | 3.23
L12K | 4.01
L12C | 4.9
L12P | 4.82
L12G | 4.72
L12E | 4.79
L12S | 4.59
L12I | 4.14
L12N | 4.38
L12F | 3.84
L12R | 3.52
L12D | 5.07
